Km, kcat and kcat/Km data for 1 protein are collected here from PMC3751045.

Test in all cases: purified protein
Conditions in all cases: 160 μM NADPH, pH 6.5 phosphate, 40°C, GST fusion

Substrate in series [1]: O=C[C@@H](O)CO
Substrate in series [2]: O=CC=O
Substrate in series [3]: CC(=O)C=O
Substrate in series [4]: O=C[C@@H](O)[C@H](O)CO

B1: Err1 from T. reesei (GLD1) (Trichoderma reesei) (protein)
chain: MSSGRTVTLNTGYKIPQIGYGTWQAAPGEVGAGVFEALKVGYRHLDLAKVYGNQKEVGEGIKKALAEVPGLKREDIFITSKLWNNSHKPEDVEPALDDTLAELGLDYLDLYLIHWPVAFAPGADLFPKSEDGSEVQLNQNVSIVQTWKAMTELPKSKVRSVGVSNFTIEHLDAVIEATGVVPAVNQIERHPRLPNQPLIDYCAKKGIIITAYSAFGNNTKGLPLLVSSDEVKAVADNLSKKQGKTVTPAQVILAWSQIGGHTVIPKSVTKARIAENFQEVELDDEAIAALNKLGEKPQRFNIPYTYKPRWNINLFNTEEEKAAAHTAVIKL
What is called Km is the concentration of substrate that gives half-maximal velocity. The kcat is the maximal rate divided by the concentration of active sites. By kcat/Km is commonly meant the second-order rate constant that governs catalysis at low substrate concentration. In the case of B1, the Km in series [1] came out at 158.04 ± 5.00 µM; in series [2], 102.74 ± 9.76 µM; in series [3] it was 131.86 ± 1.84 µM; in series [4] it was 94.07 ± 2.46 µM. The turnover number (kcat) in series [1] is 47.9 s⁻¹; in series [2], 18.8 s⁻¹; in series [3], 72.6 s⁻¹; in series [4] it was 29 s⁻¹. Further, the kcat/Km in series [1] is 303000 M⁻¹ s⁻¹; in series [2], 183000 M⁻¹ s⁻¹; in series [3], 550000 M⁻¹ s⁻¹; in series [4] it was 309000 M⁻¹ s⁻¹.
